This note sets out measurements from publication PMC7125077.

Series [1] deals with ctXPD wild type (Chaetomium thermophilum). The experiment in a line: fluorescence anisotropy. The settings on record: 5 mM Mg2+; no MAT1; ctXPD: 20 mM HEPES pH 7.5, 50 mM KCl, 5 mM MgCl2, 1 mM TCEP, 5 nM DNA, room temperature; ctDDX11: 25 mM HEPES pH 7.5, 25 mM KCl, 1 mM MgSO4, 1 mM TCEP, 2 nM …. On the technique in general: Polarisation of emitted light reports the rotation of a fluorescent probe.

Series [2] deals with ctXPD R323S/R324S (Chaetomium thermophilum). The experiment in a line: fluorescence anisotropy. The settings on record: 5 mM Mg2+, ctXPD: 20 mM HEPES pH 7.5, 50 mM KCl, 5 mM MgCl2, 1 mM TCEP, 5 nM DNA, room temperature, ctDDX11: 25 mM HEPES pH 7.5, 25 mM KCl, 1 mM MgSO4, 1 mM TCEP, 2 nM ….
The subject of series [3] is ctXPD K369E (Chaetomium thermophilum). The experiment in a line: fluorescence anisotropy. Conditions: 5 mM Mg2+; no MAT1; text gives 54 nM; ctXPD: 20 mM HEPES pH 7.5, 50 mM KCl, 5 mM MgCl2, 1 mM TCEP, 5 nM DNA, room temperature; ctDDX11: 25 mM HEPES pH 7.5, 25 mM KCl, 1 mM MgSO4, 1 mM TCEP, 2 nM ….
The test system of series [4] is ctXPD R324E (Chaetomium thermophilum). The experiment in a line: fluorescence anisotropy. Conditions: 5 mM Mg2+; no MAT1; ctXPD: 20 mM HEPES pH 7.5, 50 mM KCl, 5 mM MgCl2, 1 mM TCEP, 5 nM DNA, room temperature; ctDDX11: 25 mM HEPES pH 7.5, 25 mM KCl, 1 mM MgSO4, 1 mM TCEP, 2 nM ….
Series [5] deals with ctDDX11 K427E/K428E (Chaetomium thermophilum). The experiment in a line: fluorescence anisotropy. The settings on record: 1 mM MgSO4, 25 mM HEPES pH 7.5, 25 mM KCl, 2 nM DNA, ctXPD: 20 mM HEPES pH 7.5, 50 mM KCl, 5 mM MgCl2, 1 mM TCEP, 5 nM DNA, room temperature, ctDDX11: 25 mM HEPES pH 7.5, 25 mM KCl, 1 mM MgSO4, 1 mM TCEP.
Series [6] has as its system ctXPD wild type;ctMAT1Lock (Chaetomium thermophilum;Chaetomium thermophilum). The experiment in a line: fluorescence anisotropy. Conditions: 5 mM Mg2+; equimolar ctMAT1Lock; ctXPD: 20 mM HEPES pH 7.5, 50 mM KCl, 5 mM MgCl2, 1 mM TCEP, 5 nM DNA, room temperature; ctDDX11: 25 mM HEPES pH 7.5, 25 mM KCl, 1 mM MgSO4, 1 mM TCEP, 2 nM ….
The subject of series [7] is ctDDX11 wild type (Chaetomium thermophilum). The experiment in a line: fluorescence anisotropy. The settings on record: 1 mM MgSO4, 25 mM HEPES pH 7.5, 25 mM KCl, 2 nM DNA, ctXPD: 20 mM HEPES pH 7.5, 50 mM KCl, 5 mM MgCl2, 1 mM TCEP, 5 nM DNA, room temperature, ctDDX11: 25 mM HEPES pH 7.5, 25 mM KCl, 1 mM MgSO4, 1 mM TCEP.
For series [8], the system named is ctXPD R333S/R334S (Chaetomium thermophilum). The experiment in a line: fluorescence anisotropy. The settings on record: 5 mM Mg2+, ctXPD: 20 mM HEPES pH 7.5, 50 mM KCl, 5 mM MgCl2, 1 mM TCEP, 5 nM DNA, room temperature, ctDDX11: 25 mM HEPES pH 7.5, 25 mM KCl, 1 mM MgSO4, 1 mM TCEP, 2 nM ….
For series [9], the system named is ctXPD R333E/R334E (Chaetomium thermophilum). The experiment in a line: fluorescence anisotropy. Conditions: 5 mM Mg2+; no MAT1; ctXPD: 20 mM HEPES pH 7.5, 50 mM KCl, 5 mM MgCl2, 1 mM TCEP, 5 nM DNA, room temperature; ctDDX11: 25 mM HEPES pH 7.5, 25 mM KCl, 1 mM MgSO4, 1 mM TCEP, 2 nM ….
For series [10], the system named is ctXPD R323E (Chaetomium thermophilum). The experiment in a line: fluorescence anisotropy. The settings on record: 5 mM Mg2+; no MAT1; ctXPD: 20 mM HEPES pH 7.5, 50 mM KCl, 5 mM MgCl2, 1 mM TCEP, 5 nM DNA, room temperature; ctDDX11: 25 mM HEPES pH 7.5, 25 mM KCl, 1 mM MgSO4, 1 mM TCEP, 2 nM ….
The target in series [11] is Chaetomium thermophilum XPD, wild type (Chaetomium thermophilum).
Series [12] has the same target. The experiment in a line: native gel or EMSA; native PAGE of ctXPD with the ctMAT1 fragments ctMAT1Archway and ctMAT1Lock at similar concentrations (Supplementary Fig. 2c); unbound fragment quantified. On the technique in general: Mobility shift assays separate free from complexed probe on a gel.
In series [13] the target is ctXPD K369A (Chaetomium thermophilum).
The target of series [14] is T1, human XPD, wild type (XPD-FLAG) (human) (UniProt P18074).
T1 sequence: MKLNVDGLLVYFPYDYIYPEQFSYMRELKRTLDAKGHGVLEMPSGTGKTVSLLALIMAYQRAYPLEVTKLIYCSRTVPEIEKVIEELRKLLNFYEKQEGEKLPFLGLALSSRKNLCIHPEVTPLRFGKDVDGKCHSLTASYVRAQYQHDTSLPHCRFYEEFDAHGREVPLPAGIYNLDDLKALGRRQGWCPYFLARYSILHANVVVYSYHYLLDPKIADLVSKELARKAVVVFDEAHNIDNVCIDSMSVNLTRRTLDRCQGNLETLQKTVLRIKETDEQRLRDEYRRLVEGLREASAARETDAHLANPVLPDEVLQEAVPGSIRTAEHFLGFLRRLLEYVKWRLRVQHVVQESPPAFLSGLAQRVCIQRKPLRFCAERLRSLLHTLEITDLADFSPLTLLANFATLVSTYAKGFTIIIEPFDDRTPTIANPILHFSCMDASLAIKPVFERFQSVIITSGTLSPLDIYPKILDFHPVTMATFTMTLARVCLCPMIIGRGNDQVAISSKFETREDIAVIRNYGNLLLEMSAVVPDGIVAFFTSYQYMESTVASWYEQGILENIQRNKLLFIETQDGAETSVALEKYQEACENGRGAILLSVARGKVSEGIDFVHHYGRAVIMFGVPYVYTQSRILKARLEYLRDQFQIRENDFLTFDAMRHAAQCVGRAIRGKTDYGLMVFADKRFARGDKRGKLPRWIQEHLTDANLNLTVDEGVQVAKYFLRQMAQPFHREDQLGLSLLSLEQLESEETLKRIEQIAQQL

Setting [15] is: equimolar ctMAT1Lock present (not bound by variant).

What is called Kd is the free concentration of one partner at which half of the binding sites on the other are occupied at equilibrium, for simple one-to-one binding. Low readings indicate a tighter complex, high ones a looser complex. With “AGCTACCATGCCTGCACGAATTAAGCAATTCGTAATCATGGTCATAGC / GCTATGACCATGATTACGAATTGCTTGGAATCCTGACGAACTGTAG [splayed duplex DNA]”, the Kd stood at 66 nM in [1]; 31 nM in series [2] (setting [15]); 51 nM in series [2] (no MAT1); 55 nM in series [3]; 72 nM in [4]; 50.8 nM in series [5]. Moreover, the Kd was determined as 379 nM in series [6]; 30.8 nM in [7]; 128 nM in [8] (setting [15]); 154 nM in [8] (no MAT1); 108 nM in [9]; 41 nM in series [10].

On to “ctMAT1Archway (residues 83-157 of Chaetomium thermophilum MAT1) (domain or fragment)”, for which the inhibition of ctXPD helicase activity (with ctp44, 5' overhang substrate) by titration of the ctMAT1 construct, IC50 in [11] worked out at 2990 nM. Besides, the percent unbound ctMAT1 fragment in [12] was 84%.

Turning to “ctMAT1Lock (residues 1-157 of Chaetomium thermophilum MAT1) (domain or fragment)”, in series [11], the inhibition of ctXPD helicase activity (with ctp44, 5' overhang substrate) by titration of the ctMAT1 construct, IC50 was 220 nM. This substance also had an inhibition of helicase activity of the ctXPD variant by ctMAT1Lock, IC50 in series [13] of 263 nM. In [12], the percent unbound ctMAT1 fragment worked out at 12.8%.

As for “human CAK with MAT1 D97S/E100S (from UniProt P51948 1-309; P50613 1-346; P51946 1-323) (complex)”, the in vitro run-off transcription with core-TFIIH lacking XPD (rIIH6), XPD and the CAK variant, residual activity against wild-type CAK in [14] was 55%.
